Test results: patent US20250074980A1 (BRIGHAM AND WOMEN S HOSPITAL, published 2025)
Where two headings read alike, the source gives them in different places.

T1: His-tagged CEACAM1 (human, UniProt P13688 35-428)
T1 construct: 45 kDa SPR analyte; also called CEACAM1-HIS; CEACAM1 analyte
T1 sequence: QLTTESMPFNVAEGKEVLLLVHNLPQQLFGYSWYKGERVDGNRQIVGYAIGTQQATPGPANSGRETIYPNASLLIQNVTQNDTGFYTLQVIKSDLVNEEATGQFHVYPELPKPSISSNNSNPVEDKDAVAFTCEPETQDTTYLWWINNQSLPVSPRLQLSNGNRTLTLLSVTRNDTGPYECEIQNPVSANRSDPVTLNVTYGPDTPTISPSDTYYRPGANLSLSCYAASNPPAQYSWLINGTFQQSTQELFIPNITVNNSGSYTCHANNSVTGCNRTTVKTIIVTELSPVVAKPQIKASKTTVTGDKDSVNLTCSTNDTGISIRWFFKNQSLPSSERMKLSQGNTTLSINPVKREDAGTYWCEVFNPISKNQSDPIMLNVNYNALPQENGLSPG


Experiments:
His-tagged CEACAM1 [1] = target: T1, His-tagged CEACAM1; assay: SPR single-cycle, supernatant IgG captured
Outline: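 IgG came from supernatants of HEK EBNA cells transiently transfected by PEI in 6-well plates and harvested 5-7 days later. Supernatants were quantified by ELISA and filtered. Single-cycle surface plasmon resonance was run on a Biacore T200 at 25° C in HBS-P+ (pH 7.4), with IgG captured on Protein A and His-tagged CEACAM1 as analyte. Kon, koff and Kd were fitted, and relative KD was calculated against the parent antibody assayed in the same experiment.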

His-tagged CEACAM1 [2] = target: T1, His-tagged CEACAM1; assay: SPR single-cycle, supernatant IgG captured; remark: listed apart in the source
Description: In order to assess the binding of the humanized, affinity matured reformatted lead IgGs, single-cycle kinetics analysis was performed on crude supernatants using a Biacore T200 running Biacore T200 Control Software V2.0.1 and Biacore T200 Evaluation Software V3.0. Antibodies were diluted in HBS-P+ to a final concentration of 0.5 μg/ml. At the start of each cycle, antibodies were loaded onto Fc2, Fc3 and Fc4 of the Protein A chip. IgGs were captured at a flow rate of 10 μl/min to give an immobilisation level (RL) of ˜100 RU (a level calculated to obtain a Rₘₐₓ of ˜50-150 RU once the analyte is bound). The surface was then allowed to stabilize. Single-cycle kinetics data was obtained with CEACAM1 as the analyte at a flow rate of 80 μl/min to minimize any potential mass transfer effects. Multiple repeats with the parent (VH1/Vκ8 S29A) antibody were performed to check the stability of the surface and analyte over the kinetic cycles. The signal from the reference channel Fc1 (no antibody) was subtracted from that of Fc2, Fc3 and Fc4 to correct for differences in non-specific binding to the reference surface. A three point, two-fold dilution range from 70 nM to 280 nM CEACAM1 without regeneration between each concentration was used. The signal from each antibody blank run (no CEACAM1) was subtracted to correct for differences in surface stability. The association phase for the three injections of increasing concentrations of CEACAM1 was monitored for 80 seconds each time and a single dissociation phase was measured for 150 seconds following the last injection of CEACAM1. Regeneration of the Protein A surface was conducted using two injections of 10 mM glycine-HCL pH 1.5 followed by a stabilization period of 250 seconds.

| Binder | Kd (His-tagged CEACAM1 [1]) [nM] | koff (His-tagged CEACAM1 [1]) [s⁻¹] | kon (His-tagged CEACAM1 [1]) [M⁻¹ s⁻¹] | relative KD to parent (His-tagged CEACAM1 [1]) | Kd (His-tagged CEACAM1 [2]) [nM] | koff (His-tagged CEACAM1 [2]) [s⁻¹] | kon (His-tagged CEACAM1 [2]) [M⁻¹ s⁻¹] | relative KD to parent (His-tagged CEACAM1 [2]) |
| --- | --- | --- | --- | --- | --- | --- | --- | --- |
| CP09B03/CP08G09 (antibody, IgG4, V domains shown, IgG4 (S241P), kappa) VH: EVQLLESGGGLVQPGGSLRLSCAASGFTFNAHAISWVRQAPGKGLEWVATISSGGTYTYYPDSVKGRFTISRDNSKNTLYLQMNSLKAEDTAMYYCARHDFDYDAAWFAYWGQGTLVTVSS VL: EIVLTQSPATLSLSPGERATLSCRANSAVSYMYWYQQKPGQAPRPWIYLTSNRATGVPARFSGSGSGTDYTLTISSLEPEDFAVYYCQQWTAFPPTFGQGTKLEIK | 300 | 0.037 | 130000 | 1.9 |  |  |  |  |
| CP09B03/Vκ8 S29A (antibody, IgG4, V domains shown, IgG4 (S241P), kappa) VH: EVQLLESGGGLVQPGGSLRLSCAASGFTFNAHAISWVRQAPGKGLEWVATISSGGTYTYYPDSVKGRFTISRDNSKNTLYLQMNSLKAEDTAMYYCARHDFDYDAAWFAYWGQGTLVTVSS VL: EIVLTQSPATLSLSPGERATLSCRANSAVSYMYWYQQKPGQAPRPWIYLTSNRATGVPARFSGSGSGTDYTLTISSLEPEDFAVYYCQQWSSNPPTFGQGTKLEIK | 300 | 0.052 | 170000 | 1.8 | 260 | 0.039 | 150000 | 2.4 |
| CP09C02/CP08D02 (antibody, IgG4, V domains shown, IgG4 (S241P), kappa) VH: EVQLLESGGGLVQPGGSLRLSCAASEFTFSDHAMSWVRQAPGKGLEWVATISSGGTYTYYPDSVKGRFTISRDNSKNTLYLQMNSLKAEDTAMYYCARHGFDYDAAWFAYWGQGTLVTVSS VL: EIVLTQSPATLSLSPGERATLSCRANSAVSYMYWYQQKPGQAPRPWIYLTSNRATGVPARFSGSGSGTDYTLTISSLEPEDFAVYYCQQWTSFPPTFGQGTKLEIK | 140 | 0.022 | 160000 | 4 |  |  |  |  |
| CP09C02/CP08E01 (antibody, IgG4, V domains shown, IgG4 (S241P), kappa) VH: EVQLLESGGGLVQPGGSLRLSCAASEFTFSDHAMSWVRQAPGKGLEWVATISSGGTYTYYPDSVKGRFTISRDNSKNTLYLQMNSLKAEDTAMYYCARHGFDYDAAWFAYWGQGTLVTVSS VL: EIVLTQSPATLSLSPGERATLSCRANSAVSYMYWYQQKPGQAPRPWIYLTSNRATGVPARFSGSGSGTDYTLTISSLEPEDFAVYYCQQWTTFPPTFGQGTKLEIK | 140 | 0.02 | 140000 | 3.9 |  |  |  |  |
| CP09C02/CP08G09 (antibody, IgG4, V domains shown, IgG4 (S241P), kappa) VH: EVQLLESGGGLVQPGGSLRLSCAASEFTFSDHAMSWVRQAPGKGLEWVATISSGGTYTYYPDSVKGRFTISRDNSKNTLYLQMNSLKAEDTAMYYCARHGFDYDAAWFAYWGQGTLVTVSS VL: EIVLTQSPATLSLSPGERATLSCRANSAVSYMYWYQQKPGQAPRPWIYLTSNRATGVPARFSGSGSGTDYTLTISSLEPEDFAVYYCQQWTAFPPTFGQGTKLEIK | 140 | 0.018 | 130000 | 3.9 |  |  |  |  |
| CP09C02/Vκ8 S29A (antibody, IgG4, V domains shown, IgG4 (S241P), kappa) VH: EVQLLESGGGLVQPGGSLRLSCAASEFTFSDHAMSWVRQAPGKGLEWVATISSGGTYTYYPDSVKGRFTISRDNSKNTLYLQMNSLKAEDTAMYYCARHGFDYDAAWFAYWGQGTLVTVSS VL: EIVLTQSPATLSLSPGERATLSCRANSAVSYMYWYQQKPGQAPRPWIYLTSNRATGVPARFSGSGSGTDYTLTISSLEPEDFAVYYCQQWSSNPPTFGQGTKLEIK | 170 | 0.019 | 110000 | 3.3 | 88 | 0.017 | 200000 | 7.1 |
| CP09E05/CP08D02 (antibody, IgG4, V domains shown, IgG4 (S241P), kappa) VH: EVQLLESGGGLVQPGGSLRLSCAASGFIFSSHGMSWVRQAPGKGLEWVATISSGGTYTYYPDSVKGRFTISRDNSKNTLYLQMNSLKAEDTAMYYCARHGFDYDAAWFAYWGQGTLVTVSS VL: EIVLTQSPATLSLSPGERATLSCRANSAVSYMYWYQQKPGQAPRPWIYLTSNRATGVPARFSGSGSGTDYTLTISSLEPEDFAVYYCQQWTSFPPTFGQGTKLEIK | 330 | 0.074 | 230000 | 1.7 |  |  |  |  |
| CP09E05/CP08E01 (antibody, IgG4, V domains shown, IgG4 (S241P), kappa) VH: EVQLLESGGGLVQPGGSLRLSCAASGFIFSSHGMSWVRQAPGKGLEWVATISSGGTYTYYPDSVKGRFTISRDNSKNTLYLQMNSLKAEDTAMYYCARHGFDYDAAWFAYWGQGTLVTVSS VL: EIVLTQSPATLSLSPGERATLSCRANSAVSYMYWYQQKPGQAPRPWIYLTSNRATGVPARFSGSGSGTDYTLTISSLEPEDFAVYYCQQWTTFPPTFGQGTKLEIK | 320 | 0.041 | 130000 | 1.7 |  |  |  |  |
| CP09E05/CP08E05 (antibody, IgG4, V domains shown, IgG4 (S241P), kappa) VH: EVQLLESGGGLVQPGGSLRLSCAASGFIFSSHGMSWVRQAPGKGLEWVATISSGGTYTYYPDSVKGRFTISRDNSKNTLYLQMNSLKAEDTAMYYCARHGFDYDAAWFAYWGQGTLVTVSS VL: EIVLTQSPATLSLSPGERATLSCRANSAVSYMYWYQQKPGQAPRPWIYLTSNRATGVPARFSGSGSGTDYTLTISSLEPEDFAVYYCQQWTTNPPTFGQGTKLEIK | 200 | 0.02 | 100000 | 2.8 |  |  |  |  |
| CP09E05/CP08F05 (antibody, IgG4, V domains shown, IgG4 (S241P), kappa) VH: EVQLLESGGGLVQPGGSLRLSCAASGFIFSSHGMSWVRQAPGKGLEWVATISSGGTYTYYPDSVKGRFTISRDNSKNTLYLQMNSLKAEDTAMYYCARHGFDYDAAWFAYWGQGTLVTVSS VL: EIVLTQSPATLSLSPGERATLSCRANSAVSYMYWYQQKPGQAPRPWIYLTSNRATGVPARFSGSGSGTDYTLTISSLEPEDFAVYYCQQWTSNPPTFGQGTKLEIK | 250 | 0.034 | 140000 | 2.2 |  |  |  |  |
| CP09E05/CP08G09 (antibody, IgG4, V domains shown, IgG4 (S241P), kappa) VH: EVQLLESGGGLVQPGGSLRLSCAASGFIFSSHGMSWVRQAPGKGLEWVATISSGGTYTYYPDSVKGRFTISRDNSKNTLYLQMNSLKAEDTAMYYCARHGFDYDAAWFAYWGQGTLVTVSS VL: EIVLTQSPATLSLSPGERATLSCRANSAVSYMYWYQQKPGQAPRPWIYLTSNRATGVPARFSGSGSGTDYTLTISSLEPEDFAVYYCQQWTAFPPTFGQGTKLEIK | 320 | 0.043 | 140000 | 1.8 |  |  |  |  |
| CP09E05/Vκ8 S29A (antibody, IgG4, V domains shown, IgG4 (S241P), kappa) VH: EVQLLESGGGLVQPGGSLRLSCAASGFIFSSHGMSWVRQAPGKGLEWVATISSGGTYTYYPDSVKGRFTISRDNSKNTLYLQMNSLKAEDTAMYYCARHGFDYDAAWFAYWGQGTLVTVSS VL: EIVLTQSPATLSLSPGERATLSCRANSAVSYMYWYQQKPGQAPRPWIYLTSNRATGVPARFSGSGSGTDYTLTISSLEPEDFAVYYCQQWSSNPPTFGQGTKLEIK | 300 | 0.035 | 120000 | 1.8 | 320 | 0.037 | 120000 | 1.4 |
| VH1/CP08D02 (antibody, IgG4, V domains shown, IgG4 (S241P), kappa; also called Parent VH/CP08D02) VH: EVQLLESGGGLVQPGGSLRLSCAASGFIFSSHGMSWVRQAPGKGLEWVATISSGGTYTYYPDSVKGRFTISRDNSKNTLYLQMNSLKAEDTAMYYCARHDFDYDAAWFAYWGQGTLVTVSS VL: EIVLTQSPATLSLSPGERATLSCRANSAVSYMYWYQQKPGQAPRPWIYLTSNRATGVPARFSGSGSGTDYTLTISSLEPEDFAVYYCQQWTSFPPTFGQGTKLEIK | 450 | 0.057 | 130000 | 1.2 | 100 | 0.043 | 430000 | 6.2 |
| VH1/CP08E01 (antibody, IgG4, V domains shown, IgG4 (S241P), kappa; also called Parent VH/CP08E01) VH: EVQLLESGGGLVQPGGSLRLSCAASGFIFSSHGMSWVRQAPGKGLEWVATISSGGTYTYYPDSVKGRFTISRDNSKNTLYLQMNSLKAEDTAMYYCARHDFDYDAAWFAYWGQGTLVTVSS VL: EIVLTQSPATLSLSPGERATLSCRANSAVSYMYWYQQKPGQAPRPWIYLTSNRATGVPARFSGSGSGTDYTLTISSLEPEDFAVYYCQQWTTFPPTFGQGTKLEIK | 450 | 0.053 | 120000 | 1.2 | 170 | 0.054 | 330000 | 3.7 |
